Experiment [1] concerns the target T1, His-caspase-8(184-384) (UniProt Q14790 184-384). The experiment in a line: pull-down.
The target of experiment [2] is T1, His-caspase-8(184-384). The experiment in a line: pull-down. This is another data set of the same source.

Where two headings read alike, the source gives them in different places.

T1 sequence (Q14790 184-384): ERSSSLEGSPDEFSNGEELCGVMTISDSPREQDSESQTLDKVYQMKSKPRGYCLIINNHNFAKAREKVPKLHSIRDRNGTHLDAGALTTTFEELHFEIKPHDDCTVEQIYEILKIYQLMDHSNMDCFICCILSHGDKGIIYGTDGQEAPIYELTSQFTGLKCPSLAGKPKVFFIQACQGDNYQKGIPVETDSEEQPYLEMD

Turning to CQCRRKNYGQLDIFPARDTY (domain or fragment, human) [GST-MUC1-CD(1-20)], the binding result with His-caspase-8(184-384) [1] is given as “binds”.
Consider CQCRRKNYGQLDIFPARDTY [synthetic MUC1-CD(1-20) peptide], for which the binding result in the experiment with His-caspase-8(184-384) [2] was “binds”.

The record behind these values is PMC2536759 (Cancer research, 2008).
